Consider 6 molecules from patent US20060257938A1, “Method of screening for drugs that block ligand binding to a lipid binding protein” (priority 2005, published 2006).

Common to all, as to format: binding
What all share (settings): response relative to ADIFAB2

The nature of assay [1]: Probe fluorescence ratio response to arachidonic acid relative to ADIFAB2. The essentials:
(§1)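 Each fatty acid's response was expressed relative to ADIFAB2, the rI-FABP-L72A probe, as ΔR/ΔRreference. ΔR is the change in the background-corrected two-wavelength intensity ratio R=Fλ1/Fλ2 from its analyte-free baseline R0. Emission was read near about 420-480 nm for unbound and about 495-580 nm for FFA-bound probe.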

Assay [2] can be described thus: Probe fluorescence ratio response to linolenic acid relative to ADIFAB2. The essentials:
as §1

Assay [3] can be described thus: Probe fluorescence ratio response to linoleic acid relative to ADIFAB2. The essentials:
as §1

The nature of assay [4]: Probe fluorescence ratio response to oleic acid relative to ADIFAB2. The gist of the method:
as §1

Assay [5] in a line: Probe fluorescence ratio response to palmitic acid relative to ADIFAB2. The gist of the method:
as §1

Several values for one entry are separate records, joined by “and”; a condition that tells them apart may be missing. Equal entries are not always repeated.

B1: 73L, 72A (protein, listed as Rattus norvegicus)
chain: AFDGTWKVDRNENYEKFMEKMGINVVKRKLGAHDNLKLTITQEGNKFTVKESSNFRNIDVVFELGVDFAYSALDGTELTGTWTMEGNKLVGKFKRVDNGKELIAVREISGNELIQTYTYEGVEAKRIFKKE
modifications: PEPTIDE (1)...(131) wild-type rat intestinal fatty acid binding protein
Regarding B1, the “DR/DR AA” value in assay [1] (Arachidonic acid) is 0.73; in assay [1] (arachidonic acid), 0.733. The “DR/DR LNA” value in assay [2] is 0.34 and 0.338. The “DR/DR LA” value in assay [3] is 0.33 and 0.325. Further, the “DR/DR OA” value in assay [4] is 0.38. For the same molecule, the “DR/DR PA” value in assay [5] was 0.25 and 0.251.

B2: 73S, 72A (protein, listed as Rattus norvegicus)
chain: AFDGTWKVDRNENYEKFMEKMGINVVKRKLGAHDNLKLTITQEGNKFTVKESSNFRNIDVVFELGVDFAYSASDGTELTGTWTMEGNKLVGKFKRVDNGKELIAVREISGNELIQTYTYEGVEAKRIFKKE
modifications: PEPTIDE (1)...(131) wild-type rat intestinal fatty acid binding protein
B2: in assay [1] (Arachidonic acid), the “DR/DR AA” value stood at 1.01. Further, the “DR/DR LNA” value in assay [2] is listed as 1.08. In addition, in assay [3], the “DR/DR LA” value was 1.05. Moreover, the “DR/DR OA” value in assay [4] turned out to be 0.96. The “DR/DR PA” value in assay [5] is reported as 0.99.

B3: 73P, 72A (protein, listed as Rattus norvegicus)
chain: AFDGTWKVDRNENYEKFMEKMGINVVKRKLGAHDNLKLTITQEGNKFTVKESSNFRNIDVVFELGVDFAYSAPDGTELTGTWTMEGNKLVGKFKRVDNGKELIAVREISGNELIQTYTYEGVEAKRIFKKE
modifications: PEPTIDE (1)...(131) wild-type rat intestinal fatty acid binding protein
On to B3, for which the “DR/DR AA” value in assay [1] (Arachidonic acid) came out at 0.42. Further, the “DR/DR LNA” value in assay [2] turned out to be 0.41. Further, in assay [3], the “DR/DR LA” value came to 0.30. Moreover, the “DR/DR OA” value in assay [4] is on record as 0.30. The “DR/DR PA” value in assay [5] was found to be 0.26.

B4: 73Q, 72A (protein, listed as Rattus norvegicus)
chain: AFDGTWKVDRNENYEKFMEKMGINVVKRKLGAHDNLKLTITQEGNKFTVKESSNFRNIDVVFELGVDFAYSAQDGTELTGTWTMEGNKLVGKFKRVDNGKELIAVREISGNELIQTYTYEGVEAKRIFKKE
modifications: PEPTIDE (1)...(131) wild-type rat intestinal fatty acid binding protein
As for B4, the “DR/DR AA” value in assay [1] (Arachidonic acid) is listed as 1.36. Also, the “DR/DR LNA” value in assay [2] turned out to be 1.31. In assay [3], the “DR/DR LA” value turned out to be 1.39. For the same molecule, in assay [4], the “DR/DR OA” value was determined as 1.28. For the same molecule, the “DR/DR PA” value in assay [5] was determined as 1.19.

B5: 73R, 72A (protein, listed as Rattus norvegicus)
chain: AFDGTWKVDRNENYEKFMEKMGINVVKRKLGAHDNLKLTITQEGNKFTVKESSNFRNIDVVFELGVDFAYSARDGTELTGTWTMEGNKLVGKFKRVDNGKELIAVREISGNELIQTYTYEGVEAKRIFKKE
modifications: PEPTIDE (1)...(131) wild-type rat intestinal fatty acid binding protein
Consider B5, for which, in assay [1] (Arachidonic acid), the “DR/DR AA” value is recorded as 0.40. In assay [2], the “DR/DR LNA” value came to 0.33. In addition, the “DR/DR LA” value in assay [3] is listed as 0.36. Also, the “DR/DR OA” value in assay [4] is listed as 0.27. For the same molecule, the “DR/DR PA” value in assay [5] was 0.20.

B6: 73N, 72A (protein, listed as Rattus norvegicus)
chain: AFDGTWKVDRNENYEKFMEKMGINVVKRKLGAHDNLKLTITQEGNKFTVKESSNFRNIDVVFELGVDFAYSANDGTELTGTWTMEGNKLVGKFKRVDNGKELIAVREISGNELIQTYTYEGVEAKRIFKKE
modifications: PEPTIDE (1)...(131) wild-type rat intestinal fatty acid binding protein
As to B6, the “DR/DR AA” value in assay [1] (Arachidonic acid) came to 0.48. Further, the “DR/DR LNA” value in assay [2] turned out to be 0.47. Moreover, the “DR/DR LA” value in assay [3] was found to be 0.43. Also, the “DR/DR OA” value in assay [4] is 0.41. The “DR/DR PA” value in assay [5] came out at 0.39.
